According to patent publication WO2020033925A2 (dated 2020):

Molecular target: human BTN3A1 ectopically expressed on K32 cells (human, UniProt O00481 30-513)
Test: cell-based or functional assay

Sequence of human BTN3A1 ectopically expressed on K32 cells (O00481 30-513 limits assumed, form in doubt): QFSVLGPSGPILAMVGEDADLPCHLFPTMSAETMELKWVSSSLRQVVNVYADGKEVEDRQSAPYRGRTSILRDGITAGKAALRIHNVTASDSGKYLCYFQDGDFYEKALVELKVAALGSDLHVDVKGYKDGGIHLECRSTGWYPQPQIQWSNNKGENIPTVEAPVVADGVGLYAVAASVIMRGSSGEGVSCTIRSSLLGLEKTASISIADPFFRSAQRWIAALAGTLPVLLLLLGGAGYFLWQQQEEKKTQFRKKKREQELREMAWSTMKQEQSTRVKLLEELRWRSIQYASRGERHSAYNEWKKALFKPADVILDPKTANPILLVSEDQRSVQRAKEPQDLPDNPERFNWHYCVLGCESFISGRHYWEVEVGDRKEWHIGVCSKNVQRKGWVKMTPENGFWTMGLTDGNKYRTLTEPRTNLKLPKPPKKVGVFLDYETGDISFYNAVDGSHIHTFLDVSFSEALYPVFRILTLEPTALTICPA

B1: anti-CD277 monoclonal antibody mAb1 (antibody, V domains shown)
VH: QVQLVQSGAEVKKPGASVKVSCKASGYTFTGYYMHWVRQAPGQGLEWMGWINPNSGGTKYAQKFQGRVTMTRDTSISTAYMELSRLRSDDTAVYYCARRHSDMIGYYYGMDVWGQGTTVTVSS
VL: DIQMTQSPSSVSASVGDRVTITCRASQGISSWLAWYQQKPGKAPKLLIYAASSLQSGVPSRFSGSGSGTDFTLTISSLQPEDFATYYCQQATDFPPTFGGGTKVEIK
  proliferation of gated CD4+ T cells within total PBMCs co-cultured with anti-CD3/anti-CD28 coated BTN-K32 cells (Figure 3A): ≥ 1.5 fold
  proliferation of gated CD8+ T cells within total PBMCs co-cultured with anti-CD3/anti-CD28 coated BTN-K32 cells (Figure 3C): ≥ 1.5 fold
  proliferation of purified CD4+ T cells stimulated with BTN-K32 cells (Figure 4A): ≥ 1.5 fold
  proliferation of purified CD8+ T cells stimulated with BTN-K32 cells (Figure 4C): ≥ 2 fold
  release of IFN-g from purified CD4+ T cells stimulated with BTN-K32 cells (ELISA, Figure 5A): > 2 fold
  release of IFN-g from purified CD8+ T cells stimulated with BTN-K32 cells (ELISA, Figure 5C): ~1300 fold
